Laboratory results: patent US20210395381A1 (OSSIANIX, published 2021)

Assays:
[1] = biological target: T1, recombinant human TfR-1 (human, UniProt P02786 89-760); assay: phage ELISA
T1 construct: extracellular domain; also called hTfR1; human transferrin receptor-1
Summary of the method: (§1)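 Binding read out colorimetrically (TMB) via HRP-labelled anti-M13 antibody. Plates coated at 1 μg/ml with recombinant TfR-1 and milk-blocked; milk-blocked single-clone phage supernatants from third-round selection applied.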

[2] = biological target: T2, recombinant mouse TfR-1 (mouse, UniProt Q62351 89-763); assay: phage ELISA
T2 construct: Bought recombinant protein; also called mTfR1
T2 sequence (Q62351 89-763 limits assumed): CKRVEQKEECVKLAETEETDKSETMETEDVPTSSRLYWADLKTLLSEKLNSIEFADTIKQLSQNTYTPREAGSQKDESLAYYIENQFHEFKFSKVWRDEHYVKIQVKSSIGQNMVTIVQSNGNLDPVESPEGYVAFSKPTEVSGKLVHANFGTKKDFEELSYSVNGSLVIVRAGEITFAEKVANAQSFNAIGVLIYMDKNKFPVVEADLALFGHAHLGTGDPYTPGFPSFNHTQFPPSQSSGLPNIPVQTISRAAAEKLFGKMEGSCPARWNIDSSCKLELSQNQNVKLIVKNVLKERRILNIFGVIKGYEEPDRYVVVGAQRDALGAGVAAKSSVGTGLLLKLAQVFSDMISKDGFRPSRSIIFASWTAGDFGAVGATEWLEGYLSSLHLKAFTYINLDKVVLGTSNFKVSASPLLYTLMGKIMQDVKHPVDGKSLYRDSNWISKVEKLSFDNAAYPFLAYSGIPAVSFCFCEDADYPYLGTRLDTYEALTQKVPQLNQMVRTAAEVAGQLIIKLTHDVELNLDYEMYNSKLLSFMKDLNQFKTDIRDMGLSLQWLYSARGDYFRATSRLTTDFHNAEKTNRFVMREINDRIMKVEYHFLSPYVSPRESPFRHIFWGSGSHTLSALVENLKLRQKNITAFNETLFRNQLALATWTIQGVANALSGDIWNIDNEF
Summary of the method: as §1

T1 sequence (P02786 89-760): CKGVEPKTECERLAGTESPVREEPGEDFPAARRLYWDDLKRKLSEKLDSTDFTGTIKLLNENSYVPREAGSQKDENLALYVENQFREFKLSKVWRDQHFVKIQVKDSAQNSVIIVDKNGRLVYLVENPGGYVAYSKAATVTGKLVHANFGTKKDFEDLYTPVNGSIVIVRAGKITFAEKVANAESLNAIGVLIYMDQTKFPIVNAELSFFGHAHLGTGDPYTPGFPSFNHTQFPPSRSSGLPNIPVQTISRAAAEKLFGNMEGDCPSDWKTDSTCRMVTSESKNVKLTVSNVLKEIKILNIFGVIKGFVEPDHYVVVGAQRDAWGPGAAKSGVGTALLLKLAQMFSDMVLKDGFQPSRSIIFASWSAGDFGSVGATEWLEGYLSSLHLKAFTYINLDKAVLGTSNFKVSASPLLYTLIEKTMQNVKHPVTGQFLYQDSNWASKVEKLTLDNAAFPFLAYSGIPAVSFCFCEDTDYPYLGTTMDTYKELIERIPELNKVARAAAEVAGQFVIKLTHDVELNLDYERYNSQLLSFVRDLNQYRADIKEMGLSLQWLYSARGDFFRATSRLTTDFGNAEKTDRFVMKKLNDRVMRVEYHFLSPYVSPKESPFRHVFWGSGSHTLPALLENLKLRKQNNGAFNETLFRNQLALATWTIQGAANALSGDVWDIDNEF

B1: Clone 3 (VNAR)
VNAR: ARVDQTPQTITKETGESLTINCVLRDSNCALPSTYWYRKKSGSTNEESISKGGRYVETVNSGSKSFSLRINDLTVKDSGTYRCNVVQEPYSCKGRDDVYGGGTAVTVNA
notes: VNAR on phage
[1]
  binding result: binds
[2]
  binding result: binds

B2: Clone 28 (VNAR)
VNAR: ARVDQTPQTITKETGESLTINCVLRDSICALSSTHWYRKKSGSTNEESISKGGRYVETVNSGSKSFSLRINDLTVEDSGTYRCNVRTAQGTLCGDVSDVYGDGTAVTVNA
notes: VNAR on phage
[1]
  binding result: binds
[2]
  binding result: binds

B3: Clone 25 (VNAR)
VNAR: ARVDQTPRSVTKETGESLTINCVLRDSICALSSTYWYRKKSGSTNEESISKGGRYVETVNSGSKSFSLKINDLTVEDSGTYRCNVFTEMRGRCWAWGVDVYGDGTAVTVNA
notes: VNAR on phage
[1]
  binding result: binds
[2]
  binding result: binds

B4: Clone 7 (VNAR)
VNAR: ARVDQTPQTITKETGESLTINCVLRDNNCALSSTLWYRTKSGSRNEESISKGGRYVETVNSGSKSFSLRINDLTVEDSGTYRCNVQSWPPGNGWWCDVYGDGTAVTVNA
notes: VNAR on phage
[1]
  binding result: binds
[2]
  binding result: binds

B5: Clone 26 (VNAR)
VNAR: ARVDQTPQTITKETGESLTINCVLRDSNCALSSTLWYRTKSGSRNEESISKGGRYVETVNSGSKSFSLKINDLTVEDSGTYRCNVCMGVTCNHVPDVYGGGTVVTVNA
notes: VNAR on phage
[1]
  binding result: binds
[2]
  binding result: binds

B6: Clone 27 (VNAR)
VNAR: ARVDQTPRSVTKETGESLTINCVLRDASYALGSTCWYRKKSGSTNEESISKGGRYVETVNSGSKSFSLRINDLTVEDSGTYRCNVSRIGQYLCQARSDVYGDGTAVTVNA
notes: VNAR on phage
[1]
  binding result: binds
[2]
  binding result: binds

B7: Clone 30 (VNAR)
VNAR: ARVDQTPQTITKETGESLTINCVLRDSNCALSSTLWYRTKSGSRNEESISKGGRYVETVNSGSKSFSLKINDLTVEDSGTYRCNVWFADYYWFQYDVYGGGTAVTVNA
notes: VNAR on phage
[1]
  binding result: binds
[2]
  binding result: binds

B8: Clone 4 (VNAR)
VNAR: ARVDQTPQTITKETGESLTINCVLRDSNCALPSTYWYRKKSGSTNEESISKGGRYVETVNSGSKSFSLRINDLTVKDSGTYRCKVMSQEVRWQMTCKIVVMDVYGGGTVVTVNA
notes: VNAR on phage
[1]
  binding result: binds
[2]
  binding result: binds

B9: Clone 29 (VNAR)
VNAR: ARVDQTPQTITKETGESLTINCVLRDSNCALSSTLWYRTKSGSRNEESISKGGRYVETVNSGSKSFSLRINDLTVEDSGTYRCNVQQGCESYNWMVDVYGGGTAVTVNA
notes: VNAR on phage
[1]
  binding result: binds
[2]
  binding result: binds

B10: Clone 31 (VNAR)
VNAR: ARVDQTPQTITKETGESLTINCVLRDSNCALSSTYWYRKKSDSTNEENISKGGRYVETVNSGSKSFSLKINDLTVEDSGTYRCNVQPLFCDLWLDVYGGGTVVTVNA
notes: VNAR on phage
[1]
  binding result: binds
[2]
  binding result: binds

B11: Clone 5 (VNAR)
VNAR: ARVDQTPQTITKETGESLTINCVLRDSNCALSSTLWYRTKSGSRNEESISKGGRYVETVNSGSKSFSLRINDLTVKDSGTYRCNVQQYDCIASFDVYGDGTAVTVNA
notes: VNAR on phage
[1]
  binding result: binds
[2]
  binding result: binds

B12: Clone 6 (VNAR)
VNAR: ARVDQTPQTVTKETGESLTINCVLRDSNCALSSTLWYRTKSGSRNEESISKGGRYVETVNSGSKSFSLRINDLTVEDSGTYRCNVCSNYCPIKDDVYGDGTAVTVNA
notes: VNAR on phage
[1]
  binding result: binds
[2]
  binding result: binds
